B1: VH:VL chains; a variant is named by its letters at X, in order (parent)
chain 1: QVQLVQSGAEVKKPGASVKVSCKASGYTFTDYXMHWVRQAPGQGLEWMGXVNPNXXXTTYNQKFEGRVTMTTDTSTSTAYMELRSLRSDDTAVYYCARXNXLDXWGQGTTVTVSS
chain 2: DIQMTQSPSSLSASVGDRVTITCSVSSSVSSIYLHWYQQKPGKAPKLLIYSTSNLASGVPSRFSGSGSGTDFTLTISSLQPEDFATYYCQVYSGYPLTFGGGTKVEIK

Variants of: B1
Experiment: yeast display scFab, FACS + sequencing
Outline: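 For the non-specific binding call, a heavy-chain CDR mutant scFab library on the yeast surface was FACS-sorted and samples from two replicates were deep sequenced. Cells were labelled with anti-Myc and either biotinylated ovalbumin (260 μg/mL in PBSB, 3 h, room temperature) or soluble membrane proteins (130 μg/mL, 20 min on ice), with gates on the top 25% and bottom 10% of binders. With membrane protein and ovalbumin samples pooled, a sequence in ≥3 of 4 positive samples and no negatives was scored positive, and the converse rule scored negatives.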
In the case of SAGGGAWV, the non-specific binding call is reported as “no binding”. For SAGRGVGS, the non-specific binding call was “binds”. In the case of YAGRGVGD, the non-specific binding call is reported as “binds”. With FAGGDYGS the non-specific binding call was “binds”. For DAGGASSV, the non-specific binding call was “no binding”. For DAGGASSS, the non-specific binding call was “no binding”. In the case of DAGGASSA, the non-specific binding call is reported as “no binding”. With YAGGDDGA the non-specific binding call was “no binding”. For YAGKDDWV, the non-specific binding call was “no binding”. With YAGRGSAS the non-specific binding call was “no binding”. With AAGRGFLD the non-specific binding call was “no binding”. With FAGRGSSD the non-specific binding call was “binds”. In the case of VAGAGYGA, the non-specific binding call is reported as “binds”. For FAGGGDGD, the non-specific binding call was “no binding”. For FAGGGDGA, the non-specific binding call was “no binding”. In the case of YAGKNAVV, the non-specific binding call is reported as “no binding”. In the case of AAEKDDLA, the non-specific binding call is reported as “no binding”. With SAGGDYVF the non-specific binding call was “no binding”. With SAGRGYGD the non-specific binding call was “binds”. In the case of VAGKGAGD, the non-specific binding call is reported as “no binding”. For VAGRGVGD, the non-specific binding call was “binds”. In the case of YAGRGVVD, the non-specific binding call is reported as “binds”. With YAGTGFVD the non-specific binding call was “binds”. For YAGETFGA, the non-specific binding call was “binds”. With YAGGDDSA the non-specific binding call was “no binding”. For YAGRAAWD, the non-specific binding call was “binds”. In the case of DAGGADAV, the non-specific binding call is reported as “no binding”. In the case of DAGGADAY, the non-specific binding call is reported as “no binding”. With SAGRGDWD the non-specific binding call was “no binding”. With SAGEGSLV the non-specific binding call was “no binding”. With VAGTDAGD the non-specific binding call was “no binding”. With VAGTDAGA the non-specific binding call was “no binding”. For YAGRGDSA, the non-specific binding call was “no binding”. For YAGKTSAD, the non-specific binding call was “binds”. With VAGTGDAA the non-specific binding call was “no binding”. In the case of AAGRSDLV chain 1 R67H, the non-specific binding call is reported as “no binding”. With VAGTGDVF the non-specific binding call was “no binding”. With VAGTGDVY the non-specific binding call was “no binding”. In the case of VAGTGDVA, the non-specific binding call is reported as “no binding”. In the case of DAGTGSGA, the non-specific binding call is reported as “no binding”. In the case of DAGGGDWD, the non-specific binding call is reported as “no binding”. In the case of DAGGGDWV, the non-specific binding call is reported as “no binding”. For SAGRGSAA, the non-specific binding call was “binds”. In the case of VAGGDYLV, the non-specific binding call is reported as “no binding”. In the case of VAEKGALA, the non-specific binding call is reported as “no binding”. With YAGRGDVF the non-specific binding call was “no binding”. With YAGRGDVS the non-specific binding call was “no binding”. In the case of YAGRGDVY, the non-specific binding call is reported as “no binding”. In the case of YAGRGDVD, the non-specific binding call is reported as “no binding”. In the case of FAGEGAGV, the non-specific binding call is reported as “no binding”. For DAGGGYGV, the non-specific binding call was “no binding”. With YAGRGDWF the non-specific binding call was “no binding”. In the case of FAGRSDWV chain 1 R67H, the non-specific binding call is reported as “no binding”. In the case of YAGGDDAA, the non-specific binding call is reported as “no binding”. For YAGGDDAV, the non-specific binding call was “no binding”. For YAGGDSGV, the non-specific binding call was “no binding”. With AAGRAYGA the non-specific binding call was “binds”. With YAGGAYLY the non-specific binding call was “no binding”. For DAGRGDGF, the non-specific binding call was “no binding”. With DAGRGDGY the non-specific binding call was “no binding”. With VAGGGAGV the non-specific binding call was “no binding”. With DAGEAFSF the non-specific binding call was “no binding”. With VAERSFGV the non-specific binding call was “binds”. In the case of DAGGGDAV, the non-specific binding call is reported as “no binding”. With SAERSAAF the non-specific binding call was “no binding”. With DAGEAAGD the non-specific binding call was “no binding”. With VAGGDDWV the non-specific binding call was “no binding”. For VAGTGSLD, the non-specific binding call was “no binding”. With VAGAGDVV the non-specific binding call was “no binding”. With FAGGGASD the non-specific binding call was “no binding”. For YAGRGFGF, the non-specific binding call was “binds”. For YAGRGFGA, the non-specific binding call was “binds”. In the case of DAGTGDGV, the non-specific binding call is reported as “no binding”. With YAGAGAVY the non-specific binding call was “no binding”. With FAGRDAVV the non-specific binding call was “binds”. With DAGGGYSV the non-specific binding call was “no binding”. For DAGRGAVS, the non-specific binding call was “no binding”. With VAEKGDLS the non-specific binding call was “no binding”. In the case of DAGTGAGD, the non-specific binding call is reported as “no binding”. With DAGAADVV the non-specific binding call was “no binding”. For DAGGGSSD, the non-specific binding call was “no binding”. With DAGGGSSS the non-specific binding call was “no binding”. In the case of YAGGGDGA, the non-specific binding call is reported as “no binding”. For DAGGASLD, the non-specific binding call was “no binding”. For YAGKSAGD, the non-specific binding call was “no binding”. For FAGGGAGA, the non-specific binding call was “no binding”. In the case of FAGGGAGS, the non-specific binding call is reported as “no binding”. In the case of YAGRGDAS, the non-specific binding call is reported as “no binding”. In the case of YAGRGDAD, the non-specific binding call is reported as “no binding”. For DAGEASAV, the non-specific binding call was “no binding”. With YAGRGDGA the non-specific binding call was “no binding”. In the case of FAGRGALD, the non-specific binding call is reported as “binds”. With YAGAGSAD the non-specific binding call was “no binding”. With DAGAADAV the non-specific binding call was “no binding”. For DAETAAAA, the non-specific binding call was “no binding”. With DAGKGAGD the non-specific binding call was “no binding”. In the case of VAGGDALD, the non-specific binding call is reported as “no binding”. With VAGGDAGV the non-specific binding call was “no binding”. With DAGGADGV the non-specific binding call was “no binding”. With FAGRDVGV the non-specific binding call was “binds”. For DAGGADVY, the non-specific binding call was “no binding”. With DAGGADVA the non-specific binding call was “no binding”. In the case of YAGRSFGS, the non-specific binding call is reported as “binds”. In the case of VAGTGAVV, the non-specific binding call is reported as “no binding”. For AAGGDYVF, the non-specific binding call was “no binding”. In the case of SAGEGDWV, the non-specific binding call is reported as “no binding”. With VAEKGDVF the non-specific binding call was “no binding”. For YAGTGDLV, the non-specific binding call was “no binding”. With VAEKGDWY the non-specific binding call was “no binding”. With VAGTGDWF the non-specific binding call was “no binding”. In the case of VAGTGDWD, the non-specific binding call is reported as “no binding”.
